Source: patent US20100261777, “Inhibiton of metallo-beta-lactamase by double-stranded dna” (published 2010)

Key:
[1] = molecular target: T1, metallo-beta-lactamase (class B) 5/B/6 (Bacillus cereus) (UniProt P14488); test: inhibition; conditions: for IC50: cephalosporin C 4 mM; for IC50 / Ki: MOPS pH 7.0, 30 C; for Ki: noncompetitive
T1 sequence: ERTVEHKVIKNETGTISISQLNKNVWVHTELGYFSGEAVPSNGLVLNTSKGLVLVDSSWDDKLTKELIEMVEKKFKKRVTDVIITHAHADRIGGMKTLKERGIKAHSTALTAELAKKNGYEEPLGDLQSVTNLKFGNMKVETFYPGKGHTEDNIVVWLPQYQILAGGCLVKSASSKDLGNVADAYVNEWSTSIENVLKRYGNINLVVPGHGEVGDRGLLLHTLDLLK

[2] = molecular target: T2, metallo-beta-lactamase (class B) 5/B/6 (Bacillus cereus, UniProt P14488 P14488:30-256); test: inhibition; single strand control; conditions: tags: strain 5/B/6; desalted enzyme used for SELEX
T2 sequence: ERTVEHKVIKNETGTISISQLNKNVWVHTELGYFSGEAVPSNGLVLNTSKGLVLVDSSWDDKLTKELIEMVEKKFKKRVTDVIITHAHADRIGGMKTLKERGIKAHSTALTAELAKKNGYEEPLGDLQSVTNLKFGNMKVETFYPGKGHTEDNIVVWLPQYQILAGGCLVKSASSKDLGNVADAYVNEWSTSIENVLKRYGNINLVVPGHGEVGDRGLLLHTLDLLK

carboxypeptidase A = molecular target: T3, carboxypeptidase A (Bos taurus, UniProt P00730 P00730:111-419); test: inhibition; 10% LiCl, 30 C, hippuryl-L-phenylalanine 1 mM; conditions: tags: bovine, zinc-dependent
T3 sequence: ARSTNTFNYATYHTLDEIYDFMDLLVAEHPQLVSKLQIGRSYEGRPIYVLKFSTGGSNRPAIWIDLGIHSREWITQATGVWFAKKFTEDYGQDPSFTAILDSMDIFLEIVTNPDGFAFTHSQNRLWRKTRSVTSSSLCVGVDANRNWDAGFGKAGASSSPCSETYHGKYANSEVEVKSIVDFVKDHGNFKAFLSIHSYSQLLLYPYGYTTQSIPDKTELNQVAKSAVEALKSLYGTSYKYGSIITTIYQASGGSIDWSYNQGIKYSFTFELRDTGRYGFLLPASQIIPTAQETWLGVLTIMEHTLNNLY
Procedure: Bovine Carboxypeptidase A Assay. The assay used for the bovine carboxypeptidase A is based on the method developed by Folk and Schirmer (1963). The rate of hydrolysis of hippuryl-L-phenylalanine is determined by monitoring the increase in absorbance at 254 nm (25° C., pH=7.5). The enzyme was dissolved in 10% lithium chloride to a concentration of 1-3 units per mL. Hippuryl-L-phenylalanine (1 mM) was dissolved in 0.05 M Tris HCl, pH=7.5 with 0.5 M sodium chloride. In a 1 cm cuvette, 1.0 mL of substrate was added and incubated in the spectraphotometer at 25° C. for 3-4 minutes to reach temperature equilibrium and establish a blank rate. Fifty μL of diluted enzyme was preincubated for 15 minutes at 25° C. with or without the inhibitor and was then added to record the increase in absorbance at 254 nm.
At 25 times the IC₅₀ value (275 nM) for the metallo-β-lactamase no inhibition of the against B. cereus 569/H/9 β-lactamase I was detected (data not shown) Additionally a bovine carboxypeptidase A (Zn²⁺dependent enzyme) assay was performed to test for Zn²⁺ specificity. […] The enzyme was incubated in the buffer (10% LiC1) for 15 minutes at 30° C. The concentration of the substrate (Hippuryl-L-phenylalanine) is 1 mM.

Q: What does the source list for “ATGATCCGGTGCTGT (double strand) [ds 15-mer]”?
A: IC50 [1]: 21 nM; Ki ([1]; KI' 76.5 nM): 103 nM

Q: Which results are given for “ATGATCCGGTGCTGTATGTTCCTACATGA (double strand) [ds 29-mer]”?
A: IC50 ([1]; no added Zn2+): 14 nM; Ki ([1]; KI' 9.1 nM, no added Zn2+): 11 nM

Q: Which results are given for “ATGTTCCTACATGA (double strand) [ds 14-mer]”?
A: IC50 [1]: 11 nM; Ki ([1]; KI' 13 nM): 13 nM

Q: How did the activity ([1]; preliminary, pool after round 8, DNA quantitation approximate) turn out when “CGCGAGCTCCGCGCGNNNNNNNNNNNNNNNNNNNNNNNNNNNNNNCGCGCGCATATGGCGC (double strand) [round 8 SELEX pool (30 nt random insert)]” was run?
A: 25 % inhibition

Q: For ATGATCCGGTGCTGT (ssDNA) [ss 15-mer top strand], which IC50 [2] is on record?
A: 150 nM

Q: ACAGCACCGGATCAT (ssDNA) [ss 15-mer complementary strand] was tested. Which IC50 [2] did it give?
A: 750 nM

B1: ds 14-mer (dsDNA)
DNA 1: ATGTTCCTACATGA
DNA 2: TCATGTAGGAACAT
Q: B1 was tested. Which IC50 (carboxypeptidase A) did it give?
A: 100 nM
